B1: PPA14_11970 promoter probe (dsDNA)
DNA 1: TGTCTTTGTAACAGGAAATCCTCGATGTTCAGTCCGAAACCGAGCTGCGCGCCCCAGTTG
DNA 2: CAACTGGGGCGCGCAGCTCGGTTTCGGACTGAACATCGAGGATTTCCTGTTACAAAGACA
B2: PPA14_46900 promoter probe (dsDNA)
DNA 1: GGTTCGTTCAGAAATTGTTCAGGCTTCGTTCAGGCCCGATTCAGGCCGGGTTCAGCAGAA
DNA 2: TTCTGCTGAACCCGGCCTGAATCGGGCCTGAACGAAGCCTGAACAATTTCTGAACGAACC
B3: PPA14_50740 promoter probe (dsDNA)
DNA 1: AATCGATTCAGCAATGGTACAGGTTCGTTCAGTTTCGACCGAACCCTCCCGCTTTCATCG
DNA 2: CGATGAAAGCGGGAGGGTTCGGTCGAAACTGAACGAACCTGTACCATTGCTGAATCGATT
B4: PPA14_52350 promoter probe (dsDNA)
DNA 1: CATTTGCTGGTGTTCGTTCAGCGATGGTTCAGCTTGCCGTGGGCATAGTGGCGGCTTGCA
DNA 2: TGCAAGCCGCCACTATGCCCACGGCAAGCTGAACCATCGCTGAACGAACACCAGCAAATG

These binders were tested against PhoP-His (UniProt A0A0H2Z7U0 1-225) (assay: EMSA; PhoP 0, 2, 4 or 8 uM). Details: protein: recombinant; tags: C-terminal 6xHis; chain copies: 2; blunt.

Binder	binding result
B1	binds
B2	binds
B3	binds
B4	binds
